Source: patent US9265844B2, “Protease degradable polypeptides and uses thereof” (THE METHODIST HOSPITAL SYSTEM, priority 2010, dated 2016)
No end group written: not given here. d = 2'-deoxy (DNA); r = 2'-OH (RNA)

Assays:
Jurkat cells = assay: Fluorescence retention, flow cytometry; type: cell-based; conditions: day 4
Experimental: Jurkat cells (1.0×10^6 cells) were seeded in a 12-well culture plate (BD Falcon, San Jose, Calif.) together with 5L AuNPs (1.26×10^9 particles) in 400 μl RPMI 1640 medium and cultured for 24 hours in the dark at 37° C. in a 5% CO2 atmosphere. Cells (4×10^5) were then transferred to a FACS tube after three washes with PBS, and the FITC fluorescence signal inside the cells was measured using a BD LSR II flow cytometry (BD Biosciences, San Jose, Calif.). Remaining cells were cultured in 6-well culture plates (BD Falcon) in 4 ml RPMI 1640 medium. The procedure was repeated at different time points, up to 21 days. In a separate set of experiments, Jurkat cells (1.0×10^6) were incubated with CM-DiI (1 μM) or CMTMR (2 μM) following the manufacturer's instructions. On the designated day, the fluorescence signal of CM-DiI or CMTMR was measured using a PE filter set by a BD LSR II flow cytometry.

HeLa cells = assay: Live cell imaging by fluorescence microscopy; type: cell-based, human; conditions: compared with 5L AuNPs
Experimental: Fluorescence images of live cells were acquired using a fluorescence microscopy system (Olympus, Tokyo, Japan). Briefly, HeLa and MDA-MB231 cells were collected by trypsinization, counted, and plated in a 96-well black clear-bottom culture plate (Corning Life Sciences, Pittston, Pa.) at a density of 1×10^3 cells per well. After 1 day, AuNPs (2.52×10^8 particles) were added and incubated for 12 hours. Cells were then washed three times with PBS and cultured in phenol red-free medium and imaged with a fluorescence microscopy at the time points indicated. In a separate set of experiment, cells were treated with CellTrackers, CM-DiI (2 μM), or CMTMR (7.5 μM, Invitrogen). One day after cell seeding, HeLa and MDA-MB231 cells were incubated with CM-DiI for 5 minutes at 37° C. and then further incubated at 4° C. for an additional 15 minutes according to manufacturer's protocol. After removing the medium, the cells were then incubated for an additional 15 minutes at 4° C. For CMTMR study, cells were incubated with CMTMR for 30 minutes at 37° C. and the medium was then replaced with fresh medium and incubated for a further 30 minutes. After labeling with CM-DiI or CMTMR, cells were washed three times with PBS and cultured in phenol red-free medium and imaged under a fluorescence microscopy as indicated.

Cath E [1] = target: T1, Cath E (Homo sapiens, UniProt P14091); assay: In vivo NIRF imaging of primary patient tumor grafts in mice; parameters: endogenous in cells; host or cells: primary patient PDAC tumour grafts (subcutaneous) and MDA PATC-3 orthotopic tumours in immunodeficient mice; conditions: 48 hours after iv probe, immunodeficient mice
T1 sequence (P14091 54-396): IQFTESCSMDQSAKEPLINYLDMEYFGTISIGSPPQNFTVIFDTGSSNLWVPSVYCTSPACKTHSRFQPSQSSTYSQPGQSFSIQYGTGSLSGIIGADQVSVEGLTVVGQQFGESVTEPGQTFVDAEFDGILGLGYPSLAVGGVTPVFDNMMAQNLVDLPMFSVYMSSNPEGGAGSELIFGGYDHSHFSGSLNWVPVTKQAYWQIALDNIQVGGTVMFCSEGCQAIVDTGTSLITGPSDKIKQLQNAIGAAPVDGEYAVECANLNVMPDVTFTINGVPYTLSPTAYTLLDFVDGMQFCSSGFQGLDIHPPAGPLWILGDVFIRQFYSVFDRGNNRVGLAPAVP
Experimental: Human cancer specimens used for transplantation as primary tumor grafts were obtained from patients with pancreatic invasive ductal adenocarcinoma who had undergone initial surgical resection at UT MD Anderson Cancer Center (Kim et al., Nat. Protoc. 4:1670-80 (2009)). Nude mice were anesthetized with a single intraperitoneal injection of ketamine (100 mg/kg) and xylazine (10 mg/kg). After washing with sterile PBS, tumor fragments were placed in the subcutaneous space of immunodeficient mice (Kim et al., Nat. Protoc. 4:1670-80 (2009)). When the tumor was visible, it was dissected out and transplanted into male nude mice and allowed to grow for 30 days. […]
(§1) Subcutaneous models (human material PDAC tumor grafts with mice bearing 2 tumors each n=4, MDA PATC-3 orthotopic model n=3, MPanc96 expressing low levels of Cath E (MPanc96-FG30) n=10, and MPanc96 expression high levels of Cath E (Mpanc96-Cath E) n=10) and two transgenic models with litter controls (n=5 each) were used to assess the usefulness of the Cath E-activatable imaging probe. […] White light and near infrared fluorescence (NIRF) images were acquired sequentially using Cy5.5 fluorescence filters (615-665 nm excitation filter and 695-770 nm emission filter). […] The mean fluorescence flux from each image was defined as photons per second per centimeter squared per steradian (p/s/cm^2/sr). […]

Cath E [2] = target: T1, Cath E; assay: Ex vivo NIRF imaging of MDA PATC-3 orthotopic tumors in mice; parameters: endogenous in cells; host or cells: primary patient PDAC tumour grafts (subcutaneous) and MDA PATC-3 orthotopic tumours in immunodeficient mice; conditions: organs excised, 48 hours after iv probe
Experimental: To establish orthotopic tumors, mice were anesthetized as described above, and the pancreas was exposed through a left abdominal incision (laparotomy). Subconfluent MDA PATC-3 cells were detached with 0.25% trypsin-EDTA and cell viability was assessed by trypan blue exclusion. Cells (1×10^6) were resuspended in 50 uL of Hanks Balanced Salt Solution (HBSS) and directly injected into the pancreas (caudal). After tumor implantation, the pancreas was carefully returned to the peritoneal cavity and the abdomen was closed. Two months after tumor implantation, fluorescent probe was injected via tail vein and imaged 48 hours after injection.
as §1, with “Fluorescence variations between different organs/tissues were corrected by subtracting the autofluorescence signals obtained” for “The mean fluorescence flux”, “imaging organs/tissues of mice without any probe injected.” for “each image was defined as photons per second per centimeter squared per steradian (p/s/cm^2/sr).”

Cath E [3] = target: T2, Cath E (Mus musculus, UniProt P70269); assay: Ex vivo NIRF imaging of GEMM PDAC tumors; type: in vivo
T2 construct: from tissue; host or cells: pancreas, PDAC tumours and PanIN lesions of GEMMs (cLGL-KRasG12V/Bac-Ela-CreER; p53 conditional deletion/LSL-KrasG12D/Pdx1-Cre)
T2 sequence (P70269 60-397): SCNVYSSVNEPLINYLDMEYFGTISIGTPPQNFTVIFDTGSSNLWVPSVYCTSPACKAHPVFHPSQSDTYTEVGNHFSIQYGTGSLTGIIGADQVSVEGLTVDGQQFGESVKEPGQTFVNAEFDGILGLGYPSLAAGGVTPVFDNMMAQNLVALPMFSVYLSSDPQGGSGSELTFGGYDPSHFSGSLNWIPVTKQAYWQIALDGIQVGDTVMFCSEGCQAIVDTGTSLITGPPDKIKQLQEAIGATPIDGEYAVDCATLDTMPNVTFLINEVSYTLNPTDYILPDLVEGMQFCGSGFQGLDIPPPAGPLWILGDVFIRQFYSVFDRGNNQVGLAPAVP
Experimental: To assess whether Cath E activity served as a biomarker for in vivo imaging, studies were performed in human pancreatic cancer xenografts in immunodeficient mice (acquired from the National Cancer Institute with age of the mice ranging from 5-6 weeks old) and transgenic mice. Animals were housed at the MD Anderson Cancer Center animal facility. Mice used for optical imaging studies were fed with a chlorophyll-free diet. Genetic PanINs and PDAC mouse models were developed by crossing cLGL-KRas^G12V with Bac-Ela-CreER mice as described previously (Ji et al., Gastroenterology 137:1072-82 (2009)). These animals developed PanINs at 2 months and PDAC by ˜6 months. […] PDAC in these mice developed in 6-8 weeks after birth (Bardeesy et al., Proc. Natl. Acad. Sci. USA 103:5947-52 (2006)). Littermates without PDAC served as controls. LSL-KRas^G12D, p53 floxed, and Pdx-1-Cre genetic mice were obtained from the Mouse Models for Human Cancer Consortium Repository (Rockville, Md.).
Subcutaneous models (human material PDAC tumor grafts with mice bearing 2 tumors each n=4, MDA PATC-3 orthotopic model n=3, MPanc96 expressing low levels of Cath E (MPanc96-FG30) n=10, and MPanc96 expression high levels of Cath E (Mpanc96-Cath E) n=10) and two transgenic models with litter controls (n=5 each) were used to assess the usefulness of the Cath E-activatable imaging probe. Animals were injected with a single dose of the optical imaging probe (1 nmol/100 μl PBS) or saline (controls) intravenously through tail vein using a 30 gauge syringe needle. The anesthetized mice were placed in the heated imaging platform of IVIS-100/Spectrum optical imaging systems (Xenogen/Caliper, Mountain View, Calif.). White light and near infrared fluorescence (NIRF) images were acquired sequentially using Cy5.5 fluorescence filters (615-665 nm excitation filter and 695-770 nm emission filter). Mice were imaged 48 hours post probe intravenous injection. Mice were sacrificed and organs/tissues were excised and rinsed with PBS then imaged for their associated NIRF. Fluorescence variations between different organs/tissues were corrected by subtracting the autofluorescence signals obtained from imaging organs/tissues of mice without any probe injected. General illumination setting and image acquisition parameters were: epi-illumination; 0.5 sec. exposure time; f/stop=2; binning (HR)4; field of view (FOV=12.9 cm or 6.5 cm width and height). The mean fluorescence flux from each image was defined as photons per second per centimeter squared per steradian (p/s/cm^2/sr). Acquired images were analyzed using Living Image 3.1 software (Xenogen/Caliper, Alameda, Calif.). Fluorescence contrast, defined as radiance, was quantified using identical size regions of interest (ROI).

Cath E [4] = target: T2, Cath E; assay: Ex vivo NIRF imaging of GEMM pancreas with PanIN lesions; type: in vivo; conditions: 48 hours after probe injection, 2 months old mice
Experimental: To assess whether Cath E activity served as a biomarker for in vivo imaging, studies were performed in human pancreatic cancer xenografts in immunodeficient mice (acquired from the National Cancer Institute with age of the mice ranging from 5-6 weeks old) and transgenic mice. Animals were housed at the MD Anderson Cancer Center animal facility. Mice used for optical imaging studies were fed with a chlorophyll-free diet. Genetic PanINs and PDAC mouse models were developed by crossing cLGL-KRas^G12V with Bac-Ela-CreER mice as described previously (Ji et al., Gastroenterology 137:1072-82 (2009)). These animals developed PanINs at 2 months and PDAC by ˜6 months. […]
as §1

[5] = test system: firefly luciferase in MDA-MB231-luc2 cells; assay: Luciferase gene silencing, bioluminescence; type: cell-based, human; conditions: 5 days, same conditions
Experimental: For the examination of the gene silencing effect, bioluminescence measurement was performed after incubating with various multilayered AuNPs. Cells were seeded in a 96-well black clear bottom culture plate at a density of 2.5×10^3 (or 1.25×10^4 of LNCaP-luc2) cells per well. One day later, different sRAuNP (1.26×10^8 particles) were added to each well and cultured for an additional 24 hours. The cells were further cultured in phenol red free medium for another 5 days. Manufacturer's direction was followed for the transfection with Lipofectamine. Bioluminescence measurement was performed using IVIS 200 (Caliper) immediately after addition of 125 μg mL^−1 of D-Luciferin (Regis).

## CCCCCCCCCCCCCCCCCCN1C(=CC=CC2=[N+](CCCCCCCCCCCCCCCCCC)c3ccccc3C2(C)C)C(C)(C)c2cc(CNC(=O)c3ccc(CCl)cc3)ccc21.[Cl-] [CM-DiI]
Jurkat cells
  fluorescence intensity, % of the original intensity: 8%
HeLa cells
  signal strength: much weaker than that of the 5L AuNPs

## Cath E-activatable imaging probe: Cy5.5-labeled Ala-Gly-Phe-Ser-Leu-Pro-Ala-Gly-CysCONH2 (SEQ ID NO:29) loaded on D-polyethylene glycol protected grafted copolymer (DPGC) (AGFSLPAGC-NH2; also: Cy5.5 label, place not given here, loaded on D-polyethylene glycol protected grafted copolymer (DPGC))
Cath E [1]
  fluorescence signal at subcutaneous patient tumor grafts: strong specific fluorescence signal localized to the implanted tumor grafts
Cath E [2]
  fluorescence signal at orthotopic primary cell tumors: strong signal specifically localized to the tumors in the pancreas
Cath E [3]; 48 hours after 1 nmol probe iv, pooled GEMMs
  increase in fluorescence in pancreas tumors compared to normal pancreas: ~15 fold
Cath E [3]; 48 hours after probe
  tumor to non-tumor signal ratio, tumor/bone: 2.6
  tumor to non-tumor signal ratio, tumor/kidney: 1.9
  tumor to non-tumor signal ratio, tumor/lung: 2.9
  tumor to non-tumor signal ratio, tumor/muscle: 5.5
  tumor to non-tumor signal ratio, tumor/normal pancreas: 2.2
  tumor to non-tumor signal ratio, tumor/small intestine: 1.7
  tumor to non-tumor signal ratio, tumor/spleen: 3.9
Cath E [4]
  increase in fluorescence in pancreas with PanIN lesions compared to normal pancreas: ~3 fold

## Free unformulated siRNA: siRNA against luciferase, SEQ ID NO:17/18, unformulated (chain 1 CGUACGCGGAAUACUUCGATT; chain 2 UCGAAGUAUUCCGCGUACGTT; sugars from the 5' end r19 d2, backbone not given here)
[5]
  silencing effect: didn't show any appreciable effect
